Where no end group is shown, it is not given here.
Experiment: siRNA encapsulation in nanogels ("breathing-in" loading, UV-vis of supernatant)
Type: physicochemical
Details: lyophilized nanogels reswollen in siRNA solution
Text: In vitro siRNA encapsulation and release. Our group employs a “breathing-in” method for the encapsulation of various macromolecules within nanogels. In a typical method, lyophilized nanogels are resuspended in an aqueous solution containing the macromolecule to be loaded. Importantly, this is done using a loading solution volume that is almost completely imbibed by the swelling nanogels. In this fashion, the hydrogel network imbibes the payload with high efficiency and without relying on simple equilibrium partitioning to determine the maximum loading level. […]
The encapsulation efficiency was determined via ultracentrifugation of the nanogel loading solution and measurement of supernatant siRNA concentration by UV-vis spectroscopy (Shimadzu UV-1601). The moles of siRNA in the loading solution (msiRNA, Loading) and in the supernatant (msiRNA, Supernatant) were determined via interpolation from a separately constructed standard curve of absorbance vs. concentration (R^2>0.99). The encapsulation efficiency (EE) of the system could then be calculated through analysis of the amount of siRNA in the loading solution and the remaining moles of siRNA in the supernatant after nanogel swelling was complete, as illustrated by Equation 1 and in similar encapsulation experiments. […]

With “YSA-conjugated nanogels: core/shell pNIPMAm nanogels with YSA peptide coupled to shell amines via maleimide (EMCA) (YSAYPDSVPMMSC; also: coupled to nanogel shell amines via maleimide (EMCA))” as the substance, how does the siRNA encapsulation efficiency read?
The siRNA encapsulation efficiency was 93±1%.
